Data as given in doi:10.1101/786475 (bioRxiv, 2019).

What was measured:
Assay in all cases: peptide or protein array
[1] = biological target: T1, Cia1p (spotted on the yeast ProtoArray) (S. cerevisiae, UniProt Q05583 1-330)
T1 sequence (looked up): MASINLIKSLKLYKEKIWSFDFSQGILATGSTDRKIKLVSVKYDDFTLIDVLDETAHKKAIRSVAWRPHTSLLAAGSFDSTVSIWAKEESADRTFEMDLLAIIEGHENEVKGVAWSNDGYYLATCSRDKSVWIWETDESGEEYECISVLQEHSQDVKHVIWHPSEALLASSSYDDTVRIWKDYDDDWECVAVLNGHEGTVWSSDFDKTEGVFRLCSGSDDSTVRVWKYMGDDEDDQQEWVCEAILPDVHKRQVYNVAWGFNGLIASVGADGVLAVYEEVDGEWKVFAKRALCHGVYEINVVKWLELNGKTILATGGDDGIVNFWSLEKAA

[2] = biological target: T2, Erg20p (spotted on the yeast ProtoArray) (S. cerevisiae, UniProt P08524 1-352)
T2 sequence (looked up): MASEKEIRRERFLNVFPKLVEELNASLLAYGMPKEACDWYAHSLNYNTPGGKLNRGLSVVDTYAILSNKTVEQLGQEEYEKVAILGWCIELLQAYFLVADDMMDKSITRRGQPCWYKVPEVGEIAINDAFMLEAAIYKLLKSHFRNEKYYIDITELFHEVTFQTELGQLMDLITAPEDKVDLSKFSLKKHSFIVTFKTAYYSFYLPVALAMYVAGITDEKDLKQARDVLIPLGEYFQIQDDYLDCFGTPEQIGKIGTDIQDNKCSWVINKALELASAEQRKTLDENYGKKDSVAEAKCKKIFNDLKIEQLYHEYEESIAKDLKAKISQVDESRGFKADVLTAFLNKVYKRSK

[3] = biological target: T3, Ski8p (spotted on the yeast ProtoArray) (S. cerevisiae, UniProt Q02793 1-397)
T3 sequence (looked up): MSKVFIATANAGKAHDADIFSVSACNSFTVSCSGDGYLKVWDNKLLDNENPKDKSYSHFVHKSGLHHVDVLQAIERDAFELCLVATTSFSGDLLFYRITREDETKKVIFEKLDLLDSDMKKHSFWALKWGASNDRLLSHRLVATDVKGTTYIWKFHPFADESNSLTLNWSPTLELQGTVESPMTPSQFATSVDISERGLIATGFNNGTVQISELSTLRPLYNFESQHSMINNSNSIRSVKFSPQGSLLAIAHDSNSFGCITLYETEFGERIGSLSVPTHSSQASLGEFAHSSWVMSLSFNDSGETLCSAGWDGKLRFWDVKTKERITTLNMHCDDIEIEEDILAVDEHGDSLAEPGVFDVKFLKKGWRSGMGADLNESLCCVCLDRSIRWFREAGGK

[4] = biological target: T4, Gln1p (spotted on the yeast ProtoArray) (S. cerevisiae, UniProt P32288 1-370)
T4 sequence (looked up): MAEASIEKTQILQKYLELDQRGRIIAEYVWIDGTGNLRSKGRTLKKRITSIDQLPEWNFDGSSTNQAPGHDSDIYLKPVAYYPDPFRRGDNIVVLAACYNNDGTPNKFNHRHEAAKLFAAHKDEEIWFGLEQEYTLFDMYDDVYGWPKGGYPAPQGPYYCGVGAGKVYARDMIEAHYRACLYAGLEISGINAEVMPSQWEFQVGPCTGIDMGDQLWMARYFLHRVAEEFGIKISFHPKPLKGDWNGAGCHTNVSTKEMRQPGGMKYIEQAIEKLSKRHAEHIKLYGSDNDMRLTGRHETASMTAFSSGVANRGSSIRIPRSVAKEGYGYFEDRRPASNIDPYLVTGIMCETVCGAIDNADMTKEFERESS

binding result [1]: binds
binding result [2]: binds
binding result [3]: binds
binding result [4]: binds
B1: purified and biotinylated cytoplasmic domain of the Msb2p protein (HIS-Msb2p^CYT) (domain or fragment, S. cerevisiae, UniProt P32334 1207-1306, looked up)
chain: AFKYIIRRRIQSQEIIKNPEISSISSSEFGGEKNYNNEKRMSVQESITQSMRIQNWMDDSYYGHGLTNNDSTPTRHNTSSSIPKISRPIASQNSLGWNEV
modifications: biotinylated in vitro (sites not given)
